# Source: PMC2998437, “S. aureus MscL Is a Pentamer In Vivo but of Variable Stoichiometries In Vitro: Implications for Detergent-Solubilized Membrane Proteins” (PLoS Biology, 2010)
# Positions count from the first letter of the chain named. Numbers in names are those of the source.
# B1: S. aureus mechanosensitive channel of large conductance (SaMscL) (natural protein, UniProt Q6G9L1 1-120, looked up)
# chain: MLKEFKEFALKGNVLDLAIAVVMGAAFNKIISSLVENIIMPLIGKIFGSVDFAKEWSFWGIKYGLFIQSVIDFIIIAFALFIFVKIANTLMKKEEAEEEAVVEENVVLLTEIRDLLREKK
# notes: MscL, large-conductance mechanosensitive channel of S. aureus, GenBank CAG43065; printed monomer mass 14.4 kDa; the printed GenBank entry holds; Pentamer in Triton X-100 and C8E5 and in vivo; tetramer in LDAO (copies would then be 4); Expressed from two vectors (pET21a, pB10) with no difference reported; also called S. aureus MscL; source: E. coli PB116 (pET21a), purified (DM extraction, Ni-NTA, …)
# B2: L10C/M91C SaMscL (natural protein)
# chain: B1 chain with L10C, M91C
# notes: also called L10C/M91C protein; source: bacterial cultures induced with 1 mM IPTG, in the cell membrane (cells lysed in sample buffer)
# Legend:
# [1] = biological target: L10C/L89C SaMscL (S. aureus) (UniProt Q6G9L1); assay: cross-linking; in vivo disulfide trapping of double-cysteine mutants in the cell membrane; cells osmotically shocked (water with 1.5 uM copper phenanthroline, 15 min, 37 C) or mock shocked; non-reducing SDS-PAGE, anti-Penta His Western blot
# [2] = biological target: the molecule itself; assay: SEC-MALS; SaMscL purified in LDAO, then exchanged into C8E5 and measured the following day
# [3] = biological target: the molecule itself; assay: cross-linking; purified protein in LDAO (2.1 mM final); 5 ug protein with 2 mM DSS on ice for 5 min; anti-Penta His Western blot
# [4] = biological target: the molecule itself; assay: cross-linking; in vivo disulfide trapping of double-cysteine mutants in the cell membrane; cells osmotically shocked (water with 1.5 uM copper phenanthroline, 15 min, 37 C) or mock shocked; non-reducing SDS-PAGE, anti-Penta His Western blot
molecule,measurement,setting,value
L10C/L89C SaMscL (from UniProt Q6G9L1 1-120) (natural protein),stoichiometry N,[1],5
B1,stoichiometry N,[2],5
same,stoichiometry N,[3],4
B2,stoichiometry N,[4],5
